Assay results reported in publication PMC2760593 (Journal of biochemistry, 2008).

Target: T1, polyhistidine (His)-tagged recombinant full-length CCN2 (UniProt P29279 27-349)
T1 sequence (looked up): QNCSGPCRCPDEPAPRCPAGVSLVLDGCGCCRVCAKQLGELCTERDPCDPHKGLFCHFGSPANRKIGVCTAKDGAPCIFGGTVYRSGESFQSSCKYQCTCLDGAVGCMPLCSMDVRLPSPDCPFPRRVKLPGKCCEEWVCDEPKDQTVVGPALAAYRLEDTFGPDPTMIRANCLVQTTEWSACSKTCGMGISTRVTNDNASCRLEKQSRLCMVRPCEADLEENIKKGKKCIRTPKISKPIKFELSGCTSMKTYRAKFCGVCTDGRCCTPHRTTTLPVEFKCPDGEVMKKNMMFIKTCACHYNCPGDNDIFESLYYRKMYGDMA
Experiment: SPR

- Kd: 770 pM
B1: recombinant bone morphogenetic protein (BMP)-2 (ligand, UniProt P12643 283-396, looked up)
chain: QAKHKQRKRLKSSCKRHPLYVDFSDVGWNDWIVAPPGYHAFYCHGECPFPLADHLNSTNHAIVQTLVNSVNSKIPKACCVPTELSAISMLYLDENEKVVLKNYQDMVVEGCGCR
